From US20220315654A1

Target: recombinant cynomolgus monkey PD-L1 soluble protein (biotinylated) (cynomolgus monkey) (UniProt G7PSE7)
Assay: sandwich ELISA: antibody captured on coated anti-human Fc, biotinylated recombinant cynomolgus PD-L1 titrated (x axis, nM), streptavidin-HRP/Amplex red fluorescence

Chain of Avelumab (antibody) (VH): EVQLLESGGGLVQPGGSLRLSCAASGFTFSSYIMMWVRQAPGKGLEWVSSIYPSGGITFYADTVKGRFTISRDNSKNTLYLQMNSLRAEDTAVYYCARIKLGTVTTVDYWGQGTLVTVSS
Chain of Avelumab (antibody) (VL): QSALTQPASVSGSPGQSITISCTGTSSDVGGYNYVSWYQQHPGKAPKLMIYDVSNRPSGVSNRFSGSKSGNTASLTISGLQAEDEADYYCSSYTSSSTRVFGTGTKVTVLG
Chain of recombinant cynomolgus monkey PD-L1 soluble protein (biotinylated) (cynomolgus monkey) (G7PSE7 entry or part of it limits assumed): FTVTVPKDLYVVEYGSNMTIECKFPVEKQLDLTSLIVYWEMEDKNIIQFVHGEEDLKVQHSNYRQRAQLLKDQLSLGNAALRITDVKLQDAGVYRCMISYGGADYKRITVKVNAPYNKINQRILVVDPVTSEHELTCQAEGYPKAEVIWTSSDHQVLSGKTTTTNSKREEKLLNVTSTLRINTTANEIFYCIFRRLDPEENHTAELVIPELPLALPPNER

Avelumab (antibody)
EC50 (read off the curve): 0.05 nM
